The data set in a line: protein stability index of a GFP-peptide fusion (GPS, HEK-293T) (PSI 1-6); higher = more stable.
[1] abbreviates: treatment: DMSO, c terminus: a fixed tail appended.
The mark [2] stands for this setting: treatment: MLN4924 1 uM, 8 h, c terminus: a fixed tail appended.

± gives the standard deviation.

From the supplement of paper PMC10567573 come the findings set out here.
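Also: 24-mer peptide tiles fused after GFP, lentivirally expressed, FACS-sorted into six equal bins by GFP/DsRed ratio, decoded by Illumina sequencing, PSI is the read-weighted mean bin number.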

As for TQYFVQENYLEYRQVPGSDPACYE [MAGEA6], the protein stability index was found to be 3.34 ± 0.29 under setting [1] and 3.59 ± 0.38 under setting [2].
Take EGYVWRGSQLEDQALRGLEGYTWR [ZSWIM9]: the protein stability index is, setting by setting: under setting [1], 2.7 ± 0.22; under setting [2], 2.67 ± 0.18.
On the same counts, the results for LLIPKEDGVITASEDRTIRVWLKR [WDFY1] are 2.42 ± 0.34 and 2.7 ± 0.51.
The like results for SLSELLSQLDSGVSQAVEGPEELS [RIPK4] were, in that order, 4.27 ± 0.29 and 4.1 ± 0.4.
The like results for SGDFRSSTEDMERALSEYLAVFAR [P3H4] were, in that order, 3.44 ± 0.23 and 4.11 ± 0.17.
On to ILHTAWHPSENIIAVAATNNLYIF [PPP2R2B], for which, under setting [1], the protein stability index was 3.17 ± 0.04.
Take YQETMVESTFMYLTLDLPTAPLYK [USP39]: the protein stability index under setting [1] turned out to be 2.36 ± 0.52 and the protein stability index under setting [2] was 2.28 ± 0.21.
With NESWIKSHFSRLSEEKLALDNNAS [C10orf62], the protein stability index reads like this: under setting [1], 4.11 ± 0.14; under setting [2], 4.29 ± 0.24.
Consider LAAKERHCGELKRRLGLSTLGELK [TPD52L2], for which the protein stability index worked out at 2.85 ± 0.32 under setting [1] and 3.02 ± 0.33 under setting [2].
Consider RMLKDNKKNWRRVYKSLLLLAYLI [CLINT1], for which the protein stability index runs as follows: under setting [1], 2.45 ± 0.38; under setting [2], 2.63 ± 0.23.
The like results for PFWEVLVRSTETVERDNMEEDNVE [HDAC6] were, in that order, 5.27 ± 0.086 and 5.27 ± 0.13.
On the same counts, the results for CTNIFYEEENPGGCEDEYLVNPTC [ZER1] are 4.31 ± 0.2 and 4.36 ± 0.33.
The like results for YLSNARPDNWFCYPCIPNHELVWA [ZMYND11] were, in that order, 2.67 ± 0.34 and 2.23 ± 0.49.
In the case of LYRQHQAQIDQYVGLVTNQLSHIK [RTN2], the protein stability index was 2.08 ± 0.34 under setting [1] and 2.05 ± 0.4 under setting [2].
The like results for HTNCFELSIYVGCDKYPHESQLPE [CPXM2] were, in that order, 2.54 ± 0.34 and 2.44 ± 0.051.
With CEEALCSNLSVENVADTLVLADLH [SPOPL], the protein stability index turned out to be 4.52 ± 0.086 under setting [1] and 4.48 ± 0.22 under setting [2].
Take LGNVLFSPICLSTSLSLAQVGAKG [SERPINB5]: the protein stability index was 2.48 ± 0.2 under setting [1] and 2.12 ± 0.23 under setting [2].
On the same counts, the results for IRDIRRRGKNKMAAQNCRKRKLDT [NFE2L1] are 3.84 ± 0.29 and 3.94 ± 0.32.
In the case of AGLLPPVPAQKFSALTFLRVDQDK [SMOC2], the protein stability index by setting is: under setting [1], 3.21 ± 0.21; under setting [2], 3.3 ± 0.29.
On the same counts, the results for AEGLANGPDVLETDGLQEVPLCSC [EHMT1] are 4.75 ± 0.2 and 5 ± 0.31.
The like results for SAVSTPSPVTRTRSLSACNKRVGM [DLC1] were, in that order, 4.36 ± 0.19 and 4.38 ± 0.16.
The like results for PGQGGPASTPAQTAAGGQGGPGGP [NR2F2] were, in that order, 5.25 ± 0.21 and 5.33 ± 0.37.
GPVRSSSGMGGRAPVSRGRDSYGG [RBMX]: the protein stability index was found to be 4.32 ± 0.12 under setting [1] and 4.53 ± 0.17 under setting [2].
On the same counts, the results for AGGHLAVVELLLAHGADPTHRLKD [ANKRD17] are 1.95 ± 0.18 and 2.11 ± 0.32.
For the sequence PGKKKIRWDPVRRRFIQSCPIIRI [KLHDC10], the protein stability index was 2.01 ± 0.29 under setting [1] and 2.1 ± 0.12 under setting [2].
Regarding SQSLALKEQNNLKQLEFGLKEAPV [ZNF8], the protein stability index was found to be 4.7 ± 0.24 under setting [1] and 4.44 ± 0.16 under setting [2].
The like results for GGHTREARIQTLEPDNWMKEVMLF [RSAD1] were, in that order, 2.51 ± 0.25 and 2.34 ± 0.34.
In turn, VQETNKQPPQTVNPIGHLPESLTK [ATF4] displayed a protein stability index under setting [1] of 4.79 ± 0.24 and a protein stability index under setting [2] of 4.86 ± 0.2.
For GKPGDRNCPEFPPPDRTLGCWATD [RSPH3], the protein stability index runs as follows: under setting [1], 4.03 ± 0.28; under setting [2], 4.32 ± 0.24.
The like results for GYGGSRDSYSSSRSDLYSSGRDRV [RBMX] were, in that order, 3.828 ± 0.029 and 3.99 ± 0.37.
As to SISLMYGGSKRKSSFFSSPPYFED [SLA], the protein stability index stood at 2.37 ± 0.38 under setting [1] and 2.59 ± 0.2 under setting [2].
Consider KVLILRNHGLVSVGESVEEAFYYI [ADD1], for which the protein stability index worked out at 2.63 ± 0.53 under setting [1] and 2.72 ± 0.67 under setting [2].
On the same counts, the results for RGLRGPNLTSPASITFTTGLEAPR [TNXB] are 3.84 ± 0.2 and 3.92 ± 0.47.
On to VGPLAQDPQSPMAGLRWLDSWDF [POMT2], for which the protein stability index reads like this: (treatment: DMSO, c terminus: native) 3.34 ± 0.38; (treatment: MLN4924 1 uM, 8 h, c terminus: native) 3.36 ± 0.3.
As to ESPRKRKKATEAIDSLRKSKRLRN [FBXO28], the protein stability index stood at 5.3 ± 0.23 under setting [1] and 5.33 ± 0.14 under setting [2].
Turning to CLAQGWKQYQQRAFGWFRCSSCQR [RTP4], the protein stability index runs as follows: under setting [1], 2.15 ± 0.15; under setting [2], 2.27 ± 0.28.
The like results for KKRLQELALALKKCKPSLPAEAEG [TMEM120A] were, in that order, 3.62 ± 0.48 and 3.34 ± 0.36.
The like results for LPPGFVLKKDKKKEEKEDEISLED [ZC3H15] were, in that order, 5.54 ± 0.46 and 5.45 ± 0.36.
On the same counts, the results for LTLQVYREQADSCREQLDIMNDLS [TRIM14] are 2.99 ± 0.24 and 2.95 ± 0.1.
For the sequence SPKRGTAPGDLSATEPATCFPSTQ [FBF1], the protein stability index was 4.87 ± 0.18 under setting [1] and 4.92 ± 0.24 under setting [2].
The like results for IKDLSVVHSDLSSIVILDNSPGAY [CTDNEP1] were, in that order, 2.49 ± 0.23 and 2.48 ± 0.3.
The like results for AFREFDRDRDGRITVAELREAVPA [CABP4] were, in that order, 4.65 ± 0.37 and 4.58 ± 0.17.
For the sequence DPLSTNYSLAPNTPINQNVSLHQA [NFE2L1], the protein stability index under setting [1] turned out to be 4.25 ± 0.45 and the protein stability index under setting [2] worked out at 4.46 ± 0.16.
VLRCQLSAEEVRFPVSVTQQSPAA [C2CD2L]: the protein stability index under setting [1] turned out to be 3.3 ± 0.34 and the protein stability index under setting [2] is 3.45 ± 0.23.
For the sequence ANHTHTFYGHSHHSHHGHPSHQSH [C10orf62], the protein stability index is, setting by setting: under setting [1], 3.51 ± 0.12; under setting [2], 3.46 ± 0.23.
For ASSRSQQSSKRSSRSVEDDKEGHL [CLK3], the protein stability index under setting [1] was 5.44 ± 0.079 and the protein stability index under setting [2] is 5.52 ± 0.29.
As for IDNTTVIYNSNIFTDPFFIVETLC [KCNA1], the protein stability index by setting is: under setting [1], 2.72 ± 0.67; under setting [2], 2.53 ± 0.37.
Consider GPYEGGGPVAGLDDSGGPTPSSYA [ZBTB22], for which the protein stability index reads like this: under setting [1], 4.95 ± 0.24; under setting [2], 4.97 ± 0.17.
On to EEMAVVPQGLFRGGKSGELEQEEE [CHGA], for which the protein stability index under setting [1] turned out to be 5.63 ± 0.27 and the protein stability index under setting [2] worked out at 5.62 ± 0.18.
Consider DLRINLWNFEITNQSFNIVDIKPA [PPP2R2B], for which the protein stability index worked out at 2.47 ± 0.86 under setting [1] and 2.4 ± 0.07 under setting [2].
Consider ALKRQLPFRGDEGIFEESFIEERR [SNX12], for which the protein stability index under setting [1] is 3.8 ± 0.16 and the protein stability index under setting [2] is 4.15 ± 0.31.
With VACSETAPDLVLNAEMVQQTTYLE [LOXL2], the protein stability index was found to be 4.41 ± 0.53 under setting [1] and 4.5 ± 0.25 under setting [2].
On the same counts, the results for KLAQALHEMREQHDAQVRLYKEEL [LMNB1] are 2.66 ± 0.3 and 2.7 ± 0.22.
The like results for SLARLQQLLFVIFLLLYLFTLGTN [OR10K2] were, in that order, 2.78 ± 0.51 and 2.13 ± 0.53.
As for ETEDVDYGETDFHKQDGKAGLFSQ [TMEM40], the protein stability index runs as follows: under setting [1], 5.3 ± 0.27; under setting [2], 5.36 ± 0.2.
The sequence GSMKIKSSWDIDGRATKRRKKSGD [FBXO34] showed a protein stability index under setting [2] of 4.34 ± 0.81.
In the case of DLTFAPDGSLILVSASRDKTLRVW [WSB1], the protein stability index by setting is: under setting [1], 2.32 ± 0.31; under setting [2], 2.37 ± 0.099.
For the sequence GNGKNLVDFTFVENVVHGHILAAE [NSDHL], the protein stability index under setting [1] was 3.08 ± 0.36 and the protein stability index under setting [2] worked out at 2.91 ± 0.51.
Take KPARKRRRRSRKKPSGALGSESYK [EHMT1]: the protein stability index under setting [1] is 5.11 ± 0.27 and the protein stability index under setting [2] stood at 5.28 ± 0.14.
The like results for LQGAASHVPEGFDPTGPAGLGRPT [EHMT1] were, in that order, 4.54 ± 0.2 and 4.58 ± 0.14.
For QQQCHEMAERLEDSVLKGMQAASS [SDE2], the protein stability index by setting is: under setting [1], 4.17 ± 0.33; under setting [2], 4.2 ± 0.41.
Consider CQEWYARRHCPLPQATFWGLVTPR [SOAT2], for which the protein stability index under setting [1] came to 2.32 ± 0.23 and the protein stability index under setting [2] was 2.25 ± 0.54.
With HNRSNNKYSYTSTSDDNLLKNIEL [KCTD13], the protein stability index reads like this: under setting [1], 3.66 ± 0.12; under setting [2], 3.73 ± 0.16.
The like results for TRGKRESESRGSSGRVKRERDRER [USP39] were, in that order, 5.04 ± 0.26 and 5.3 ± 0.18.
In the case of EAQHGPHSAVARISRAQYNALTLT [STX11], the protein stability index runs as follows: under setting [1], 3.32 ± 0.11; under setting [2], 3.47 ± 0.31.
On to EDGPGKEEAPELDEAELDYLMDVL [SERTAD1], for which the protein stability index under setting [1] was determined as 5.08 ± 0.12 and the protein stability index under setting [2] was found to be 5.01 ± 0.21.
The like results for WKPPDIKGKLMVCYETLPRGQCLL [SPAG8] were, in that order, 2.27 ± 0.4 and 2.32 ± 0.41.
With MALQLGRLSSGPCWLVARGGCGGP [CPOX], the protein stability index amounted to 2.36 ± 0.38 under setting [1] and 2.44 ± 0.38 under setting [2].
The like results for SGPARVIAIVSVMVILISIVIFCL [KCNA1] were, in that order, 2.18 ± 0.14 and 2.22 ± 0.32.
For the sequence QEITSETEDLCEKPDDEVKETAHD [RIPK4], the protein stability index runs as follows: under setting [1], 5.6 ± 0.17; under setting [2], 5.69 ± 0.21.
On the same counts, the results for EQPITDFCSVIRINSTAPFEEQEN [ZNF277] are 4.4 ± 0.23 and 4.46 ± 0.3.
For the sequence HSGSVVGAGLPQFQSISLRKIQFN [CLCN6], the protein stability index is, setting by setting: under setting [1], 2.85 ± 0.24; under setting [2], 3 ± 0.27.
As for PGSGSGPGPGSGPGSGPGHGSGSH [SPAG8], the protein stability index is, setting by setting: under setting [1], 5 ± 0.17; under setting [2], 4.93 ± 0.18.
